B1: human SYCE1 core (amino acids 25–179) (domain or fragment, UniProt Q8N0S2 25-179, looked up)
chain: GQDTSSQKIEDLMEMVQKLQKVGSLEPRVEVLINRINEVQQAKKKANKDLGEARTICEALQKELDSLHGEKVHLKEILSKKQETLRILRLHCQEKESEAHRKHTMLQECKERISALNLQIEEEKNKQRQLRLAFEEQLEDLMGQHKDLWDFHMPE
notes: also called SYCE1 structural core; source: E. coli BL21(DE3), purified (amylose, anion exchange, TEV cleavage, anion exchange, SEC); not shown: His, N-terminal, cleaved; MBP, N-terminal, cleaved
B2: MBP-SYCE1 (N-terminal MBP fusion of SYCE1 core, amino acids 25–179) (domain or fragment, human, UniProt Q8N0S2 25-179, looked up)
chain: B1 chain
notes: pMAT11 gives a His-MBP fusion with a TEV site; source: E. coli BL21(DE3), purified; not shown: MBP, N-terminal, kept
B3: SYCE1-MBP (C-terminal MBP fusion of SYCE1 core, amino acids 25–179) (domain or fragment, human, UniProt Q8N0S2 25-179, looked up)
chain: B1 chain
notes: source: E. coli BL21(DE3), purified; not shown: MBP, C-terminal, kept
B4: MBP-SYCE1-MBP (N- and C-terminal MBP double fusion of SYCE1 core, amino acids 25–179) (domain or fragment, human, UniProt Q8N0S2 25-179, looked up)
chain: B1 chain
notes: source: E. coli BL21(DE3), purified; not shown: MBP, N-terminal, kept; MBP, C-terminal, kept
B5: human SYCE1 full length (amino acids 1–351) (natural protein, UniProt Q8N0S2 1-351, looked up)
chain: MAGRSLTSKAEPTAGAVDRAEKAGGQDTSSQKIEDLMEMVQKLQKVGSLEPRVEVLINRINEVQQAKKKANKDLGEARTICEALQKELDSLHGEKVHLKEILSKKQETLRILRLHCQEKESEAHRKHTMLQECKERISALNLQIEEEKNKQRQLRLAFEEQLEDLMGQHKDLWDFHMPERLAKEICALDSSKEQLLKEEKLVKATLEDVKHQLCSLCGAEGPSTLDEGLFLRSQEAAATVQLFQEEHRKAEELLAAAAQRHQQLQQKCQQQQQKRQRLKEELEKHGMQVPAQAQSTQEEEAGPGDVASPKPLKGERPGAAHQAGPDVLIGQEDTLHPDLSPRGFQEIKELF
notes: synaptonemal complex central element protein 1 (SYCE1), human, full length, amino acids 1–351; also called full-length SYCE1; source: E. coli BL21(DE3), purified (amylose, anion exchange, TEV cleavage, anion exchange, SEC); not shown: His, N-terminal, cleaved; MBP, N-terminal, cleaved

Molecular target: the molecule itself
Assay: SEC-MALS; 6–20 mg/ml loaded on Superdex 200 Increase 10/300 GL in 20 mM Tris pH 8.0, 150 mM KCl, 2 mM DTT

Stoichiometry N, 2:
B1
B2
B3
B4
B5
